Test results as given in patent publication US20220323563A1.
Where two headings read alike, the source gives them in different places.

Assays:
[1] = target: Fcγ fragment of human IgG (human); assay: BLI, Ni-NTA sensor, SpA immobilised, Fc fragment of human IgG in solution
[2] = target: F(ab)2 fragment of human IgG (human)
[3] = target: Fcγ fragment of human IgG (human)

Substance	Ka [1] [M⁻¹]	Ka [2] [M⁻¹]	Ka [3] [M⁻¹]	human IgE affinity (human IgE)
SpA (wild-type protein A, recombinant five IgBDs) (from UniProt P02976 37-327)	5.17e+07			
SpAQ9,10K/S33T (from UniProt P02976 37-327)		43.5	39.9	
SpAQ9,10K/S33E (from UniProt P02976 37-327)		41.2	32.7	
SpAQ9,10K/G29F/D36,37A (from UniProt P02976 37-327)				2.02e-05
